Numbering of substitutions follows the chain as printed.
Experiments:
Test in all cases: EMSA; glutaraldehyde-fixed; ssDNA EMSA: 10 nM DNA, 50 mM potassium phosphate pH 6.0, 5 mM EDTA, 5% glycerol, 0.1 mg/ml BSA, 37°C, 40 min, then 0.1% glutaraldehyde; second-strand EMSA: 5 nM each strand, 20 mM Tris-HCl pH 7.5, 5 mM MgCl2, 1 mM DTT, 0.1 mg/ml BSA, 37°C
Conditions in all cases: protein: recombinant; tags: His6 removed; N-terminal GSH left; label: 5' Cy3
[1] = target: T1, Redβ R152A (Bacteriophage λ (Enterobacteria phage λ), UniProt P03698 1-261, R152A)
T1 sequence: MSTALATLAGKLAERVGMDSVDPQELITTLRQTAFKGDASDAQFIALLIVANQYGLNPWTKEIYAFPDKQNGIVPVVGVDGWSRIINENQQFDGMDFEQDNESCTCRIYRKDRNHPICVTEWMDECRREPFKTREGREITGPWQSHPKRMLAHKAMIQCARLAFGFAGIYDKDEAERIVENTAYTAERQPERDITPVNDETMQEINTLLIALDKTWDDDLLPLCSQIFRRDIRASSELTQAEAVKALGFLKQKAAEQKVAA

[2] = target: T2, Redβ K69A (Bacteriophage λ (Enterobacteria phage λ), UniProt P03698 1-261, K69A)
T2 sequence: T1 sequence with K69A, A152R

[3] = target: T3, Redβ R161A (Bacteriophage λ (Enterobacteria phage λ), UniProt P03698 1-261, R161A)
T3 sequence: T1 sequence with A152R, R161A

[4] = target: T4, Redβ K172A (Bacteriophage λ (Enterobacteria phage λ), UniProt P03698 1-261, K172A)
T4 sequence: T1 sequence with A152R, K172A

[5] = target: T5, Redβ G78A (Bacteriophage λ (Enterobacteria phage λ), UniProt P03698 1-261, G78A)
T5 sequence: T1 sequence with G78A, A152R

[6] = target: T6, Redβ K148A (Bacteriophage λ (Enterobacteria phage λ), UniProt P03698 1-261, K148A)
T6 sequence: T1 sequence with K148A, A152R

Q: Which results are given for TGCGGATGGCTTAGAGCTTAATTGCTGAATCTGGTGCTGTAGCTCAACAT (ssDNA) [50-minus ssDNA]?
A: binding signal [1]: 13 % of WT binding at 3 µM protein; binding signal [2]: 94 % of WT binding at 3 µM protein; binding signal [3]: 11 % of WT binding at 3 µM protein; binding signal [4]: 76 % of WT binding at 3 µM protein; binding signal [5]: 33 % of WT binding at 3 µM protein; binding signal [6]: 43 % of WT binding at 3 µM protein

Source: article PMC3823998, “Structural and Functional Characterization of the Redβ Recombinase from Bacteriophage λ” (PLoS ONE, 2013)
